Reference: patent US20040265808A1, “Genes involved in osteogenesis, and methods of use” (priority 2001, published 2004)

Assays:
Type in all cases: cell-based, mouse
[1] = tested on: pluripotent cells C3H10T1/2, ST2 and C2C12; test: Wnt-frizzled pathway and osteoblast differentiation, alkaline phosphatase measurement in pluripotent cells; conditions: for effect on the activity of Wnt proteins (Wnt1, Wnt2, Wnt3a), alkaline phosphatase measurement: C3H10T1/2
Excerpt: FIGS. 1 to 7 represents the relationship between members of the Wnt-frizzled family, with bone formation, by measurement of alkaline phosphatase (ALP).
The inventors have also tested the capacity of Fz1 to interact with Wnt proteins and thus affect osteoblast differentiation. Overexpression of Fz1 decreased the activity of Wnt1, Wnt2 and Wnt3a in pluripotent cells C3H10T1/2 as determined by the alkaline phosphatase measurement (FIG. 4). However the expression of Fz3 or Fz4 increased the activity of Wnt proteins in the differentiation process (FIG. 6). […] This indicate that Frizzled may negatively or positively cooperate with their ligand proteins, Wnt, in these bone-related cells.
(§1) Mouse cell lines representing different stages of osteoblastic differentiation, C2C12, C2H10T1/2, ST2 and MC3T3-E1, were grown in the presence of agents capable of the induction of osteoblastic differentiation in vitro such as BMP2 and Sonic Hedgehog or in the presence of TGF beta (negative control) or with serum alone. Primary cells derived from mouse calvaria were also cultured for 0, 2, 7 14 and 21 days and RNA prepared for each time point. For example, C3H10T ½ and C2C12 can be obtained from the ATCC (Manassas, Va., USA) under the collection numbers CCL-226 and CRL-1772, respectively.

C2C12 cells = test: Transient over-expression of candidate genes, cooperation with BMP2 by measurement of alkaline phosphatase; design: key: +: positive or negative cooperation with BMP2; −: positive or negative cooperation with BMP2
Method: as §1
(§2) The candidates genes are cloned in expression vectors and their ability to express a protein of the expected size verified by COS cells transient transfection. The genes are then transfected in C3H10T1/2 cells and/or C2C12 cells (transient over-expression) and positive or negative cooperation with BMP2 is evaluated by the measurement of alkaline phosphatase (enzymatic assay and TaqMan) at 48 hours. Controls of positive cooperation, recombinant Sonic Hedgehog, or negative cooperation, recombinant Noggin, are included in each test.

C3H10T1/2 cells = test: as above; design: key: +: positive or negative cooperation with BMP2; −: positive or negative cooperation with BMP2; conditions: for Validation in vitro (coop over BMP2) C3H10T1/2: alkaline phosphatase
Method: as §1, §2

Fz3: frizzled receptor expressed in C3H10T1/2 cells
effect on the activity of Wnt proteins (Wnt1, Wnt2, Wnt3a), alkaline phosphatase measurement ([1]; overexpression): increased

Wnt3a
production of alkaline phosphatase (osteoblast differentiation) ([1]; overexpression, C3H10T1/2, ST2 and C2C12): increases

O=c1cc(-c2ccc(O)cc2)oc2cc(O)cc(O)c12 [Apigenin, reference compound]
activity of BMP-2 and Shh ([1]; C3H10T1/2, ST2 and C2C12): able to block

TCF3: TCF protein, transcription factor of the Wnt pathway
effect on BMP-2 ([1]; C3H10T1/2 cells): inhibitors

Fz4: frizzled receptor expressed in C3H10T1/2 cells
effect on the activity of Wnt proteins (Wnt1, Wnt2, Wnt3a), alkaline phosphatase measurement ([1]; overexpression): increased

SEQ ID No 37: candidate gene, receptor tyrosine kinase Ufo/Ax1, overexpressed in cells
BMP2 induced Alkaline phosphatase activity ([1]; overexpressed in C2C12 or C3H10T1/2 cells): repress

B1: 42 (nucleic acid, listed as Mus musculus)
chain: CGATCGATATGGCAGACACGTTTTCGCTTAACGATGCCTTAGCTGGCTCTGGAAACCCAAACCCTCAAGGATATCCGGGTGCATGGGGGAACCAGCCTGGGGCAGGGGGCTACCCAGGGGCTGCCTATCCTGGGGCCTATCCAGGACAGGCTCCTCCAGGGGCCTACCCAGGACAGGCTCCTCCAGGGGCCTATCCAGGACAGGCTCCTCCTAGTGCCTACCCCGGCCCAACTGCCCCTGGAGCTTATCCTGGCCCAACTGCCCCTGGAGCTTATCCTGGCTCAACTGCCCCTGGAGCCTTCCCAGGGCAACCTGGGGCACCTGGGGCCTACCCCAGTGCTCCTGGAGGCTATCCTGCTGCTGGCCCTTATGGTGTCCCCGCTGGACCACTGACGGTGCCCTATGACCTGCCCTTGCCTGGAGGAGTCATGCCCCGCATGCTGATCACAATCATGGGCACAGTGAAACCCAACGCAAACAGGATTGTTCTAGATTTCAGGAGAGGGAATGATGTTGCCTTCCACTTTAACCCCCGCTTCAATGAGAACAACAGAAGAGTCATTGTGTGTAACACGAAGCAGGACAATAACTGGGGAAAGGAAGAAAGACAGTCAGCCTTCCCCTTTGAGAGTGGAAAACCATTCAAAATACAAGTCCTGGTTGAAGCTGACCACTTCAAGGTTGCGGTCAACGATGCTCACCTACTGCAGTACAACCATCGGATGAAGAACCTCCGGGAAATCAGCCAACTGGGGATCAGTGGTGACATAACCCTCACCAGCGCTAACCACGCCATGATCGCGGCCGCTT
Validation in vitro (coop over BMP2) C2C12 (C2C12 cells): − | Validation in vitro (coop over BMP2) C3H10T1/2 (C3H10T1/2 cells): −

B2: 63 (nucleic acid, listed as Mus musculus)
chain: CGGAATTCGCCATGTCAACAGCAGGAGTTGCTGCTCAGGATATTCGAGTCCCATTAAAAACTGGATTTCTCCATAATGGTCAGGCCTTGGGGAATATGAAGTCCTGCTGGGGCAGTCACAGTGAGTTTGAAAATAACTTTTTAAATATTGATCCAATAACCATGGCCTACAATCTGAACTCCCCTGCTCAGGAGCACCTAACAACTGTTGGATGTGCTGCTCGGTCTGCTCCAGGGAGCGGCCACTTCTTTGCAGAGTGTGGTCCATCTCCAAGGTCAAGCTTGCCCCCTCTTGTTATCTCACCAAGTGAAAGCTCGGGACAGCGTGAAGAGGATCAAGTTATGTGTGGTTTTAAGAAACTCTCAGTGAATGGGGTCTGCACTTCCACACCTCCACTTACACCCATTAAAAGCTGCCCTTCCCCTTTCCCCTGTGCGGCTCTGTGTGATCGGGGTTCTCGGCCGCTCCCGCCACTGCCCATCTCTGAAGACCTATGTGTGGATGAGGCCGACAGTGAGGTAGAGCTTCTAACCACCAGCTCAGACACAGACTTGCTTTTAGAAGACTCTGCGCCTTCAGATTTCAAATACGATGCTCCTGGCAGGCGCAGCTTCCGTGGGTGCGGCCAGATCAACTATGCATATTTTGACAGCCCAACTGTTTCTGTGGCAGATCTTAGCTGTGCATCTGACCAGAACAGAGTTGTTCCAGACCCAAACCCTCCCCCACCTCAAAGCCATCGCAGATTAAGGAGGTCTCACTCAGGACCAGCTGGGTCATTTAACAAGCCAGCCATTCGGATATCTAGCTGCACACACAGAGCTTCTCCTAGCTCTGATGAAGACAAGCCTGAGGTCCCTCCCAGGGTTCCTATACCTCCTAGGCCAGCAAAGCCAGACTATAGACGGTGGTCAGCAGAAGTGACCTCCAACACCTACAGTGATGAAGATAGGCCTCCCAAAGTCCCCCCGAGAGAACCTTTGTCTCGGAGTAACTCCCGTACCCCAAGTCCTAAAAGCCTTCCGTCTTACCTCAATGGGGTCATGCCCCCAACACAGAGCTTCGCTCCTGACCCCAAGTATGTCAGCAGCAAAGCCCTGCAGAGACAGAGCAGCGAAGGATCTGCCAACAAGGTTCCTTGCATCCTGCCCATTATTGAAAATGGGAAGAAGGTTAGCTCAACGCATTATTACTTACTACCTGAGAGGCCACCGTACCTGGACAAATATGAAAAGTATTTTAAGGAAGCAGAAGAAACAAACCCAAGCACCCAAATTCAGCCATTACCTGCTGCCTGTGGTATGGCCTCTGCCACAGAAAAGCTGGCCTCCAGAATGAAAATAGATATGGGTAGCCACGGGAAGCGCAAACACTTATCCTACGTGGTTTCTCCAGCGGCCGCTT
Validation in vitro (coop over BMP2) C2C12 (C2C12 cells): − | Validation in vitro (coop over BMP2) C3H10T1/2 (C3H10T1/2 cells): −

B3: 55 (nucleic acid, listed as Mus musculus)
chain: CGATCGATATGTCTTCAGGAAATGCAAAAATTGGGTATCCTGCTCCCAACTTCAAAGCTACAGCTGTTATGCCAGATGGACAATTCAAAGATATCAGCCTAAGTGAATACAAAGGAAAATATGTTGTGTTCTTCTTTTACCCTCTTGACTTTACTTTTGTGTGTCCCACGGAGATCATTGCTTTCAGTGATAGAGCCGATGAATTTAAGAAACTCAACTGCCAAGTGATTGGCGCTTCTGTGGATTCTCACTTCTGTCATCTGGCATGGATTAACACACCCAAGAAACAAGGAGGATTGGGACCCATGAACATTCCCTTAATATCAGATCCCAAGCGCACCATTGCTCAGGATTATGGAGTCTTAAAGGCTGATGAAGGTATCTCTTTCAGGGGCCTTTTTATTATTGATGATAAAGGTATCCTTCGACAGATAACAATAAACGATCTTCCCGTTGGCCGCTCTGTGGATGAGATTATACGACTAGTCCAGGCCTTCCAGTTCACTGACAAACATGGTGAAGTGTGTCCAGCTGGCTGGAAACCTGGCAGTGATACCATCAAGCCTGATGTCAATAAGAGCAAAGAGTATTTCTCTAAGCAGAAGGCGGCCGCTT
Validation in vitro (coop over BMP2) C2C12 (C2C12 cells): − | Validation in vitro (coop over BMP2) C3H10T1/2 (C3H10T1/2 cells): −

B4: 11 (nucleic acid, listed as Mus musculus)
chain: AATCTAGAATGCAGTGGGCCTCCGTCCTGCTGCTGGCTGGGCTCTGCTCACTTTCCCAGGGCCAGTATGATGAAGACTCTCACTGGTGGATCCAATACCTCCGAAACCAGCAGTCCACCTACTACGACCCCTATGACCCTTACCCCTATGAGCCCTCTGAGCCTTACCCCTATGGAGTGGAAGAAGGCCCAGCCTATGCCTATGGTGCACCACCTCCACCAGAGCCCCGTGATTGTCCCCAAGAATGCGACTGTCCCCCCAACTTCCCCACAGCCATGTACTGTGACAACCGCAACCTCAAGTACCTGCCTTTTGTGCCCTCCCGCATGAAGTACGTCTACTTCCAGAACAACCAGATCTCTGCCATCCAGGAAGGTGTCTTTGACAATGCCACTGGGCTCCTCTGGGTCGCTCTACATGGCAACCAGATTACCAGTGACAAGGTAGGCAGGAAAGTCTTCTCCAAGCTGAGGCACTTGGAGAGGCTGTACTTGGACCACAACAACCTGACCCGGATGCCCGGCCCGCTGCCCCGATCCCTGAGAGAGCTCCACCTGGACCACAACCAGATCTCACGGGTCCCCAACAATGCTTTGGAGGGCCTGGAGAACCTCACGGCCTTATATCTCCACCACAATGAGATCCAGGAAGTGGGGAGTTCCATGAGAGGCCTCCGGTCCCTGATCCTACTAGACCTGAGTTATAACCACCTTCGGAGGGTACCCGACGGTCTGCCCTCAGCCCTGGAGCAGCTGTACCTAGAACACAACAATGTCTACACCGTCCCTGACAGCTACTTCCGGGGGTCACCCAAGCTGCTGTACGTCCGGTTGTCTCACAACAGTCTCACTAACAACGGCCTTGCTACCAACACCTTCAACTCCAGCAGCCTTCTTGAGCTAGACTTGTCTTACAATCAGCTGCAGAAGATCCCTCCTGTCAACACCAACCTGGAGAATCTTTACCTCCAGGGCAACAGGATCAATGAGTTCTCCATCAGCAGCTTCTGCACGGTGGTGGACGTCATGAACTTCTCCAAGCTGCAGGTGCTACGCCTGGATGGGAACGAGATCAAGCGCAGCGCAATGCCGGTGGACGCCCCACTCTGCCTGCGCCTCGCCAACCTCATCGAGATCACTAGTAA
Validation in vitro (coop over BMP2) C2C12 (C2C12 cells): − | Validation in vitro (coop over BMP2) C3H10T1/2 (C3H10T1/2 cells): − | Validation in C2H10T1/2 (coop over BMP2) (C3H10T1/2 cells; alkaline phosphatase at 48 hours): − coop over BMP2
